Test results published in patent publication US8178324B2, “Deracemisation of amines” (Ingenza Limited, priority 2002, dated 2012).

Test system: CCCCCN
Test: Colorimetric hydrogen peroxide amine oxidase assay, purified mutant enzyme (N336S)
Type: biochemical, Aspergillus niger
Conditions: other: purified N336S mutant; 30.0 °C
Method: The wild-type enzyme was also purified by the same protocol and the two enzymes compared for substrate specificity and enantioselectivity.
The mutated gene was also sequenced and the sequence is shown in SEQ ID NO: 2. There was a single amino acid change from the wild-type enzyme with serine replacing asparagine at position 336.
LB medium (6×300 ml) containing ampicillin (100 μg·ml^−1) in 1 L baffled flasks was inoculated with a single colony of monoamine oxidase mutant from an LB agar plate. Cultures were incubated at 30° C. for 22 hours (OD600˜3.6) then harvested and washed with phosphate buffer (50 mM, pH 8) to yield a yellow-brown pellet (11.2 g).
The pellet was resuspended in Tris/HCl buffer (25 mM, pH 7.8, 30 ml) and sonicated on ice (30 s on, 30 s off for 10 minutes). The suspension was then centrifuged (20,000 rpm, 4° C.) until clear supernatant was obtained and the supernatant dialysed against Tris/HCl buffer (25 mM, pH 7.8). […]
The spectrophotometer was blanked against assay mixture and HRP. Enzyme was added and the absorbance at 500 nm measured at 3 s intervals for a 10 minute period.
The Km values were calculated using ‘KaleidaGraph for Windows’ (Synergy Software). For calculation of the kcat, the active enzyme concentration was determined by estimating the FAD content from the absorbance at 458 nm using an extinction coefficient of 11 mM^−1 cm^−1 (see ref 12).

mutant A. niger monoamine oxidase (N336S) (Aspergillus niger; A300V/K348M/L304V/N336S/R450G)
Km: 400 µM | kcat: 1.93 s⁻¹
